The values below come from PMC9342713.

The data set concerns the target T1, DitR (Stenotrophomonas maltophilia K279a) (UniProt B2FL17).
T1 sequence: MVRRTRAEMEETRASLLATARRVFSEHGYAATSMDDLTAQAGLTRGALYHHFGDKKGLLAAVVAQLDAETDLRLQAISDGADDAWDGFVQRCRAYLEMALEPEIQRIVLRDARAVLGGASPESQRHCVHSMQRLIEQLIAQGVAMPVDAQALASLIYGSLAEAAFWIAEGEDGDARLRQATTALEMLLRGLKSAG
The experiment in a line: DNase I footprinting.

For “GGGGGCGGCGAACAGGTCGCGGTAGGGGGTGGCCATCGGGATCTCCAGGGCAGCGGCTTGCCTGGCGCTCCCGGCGCCACGACAATACATACAGAGCGTATGAATAAGAGCCTACATTCATACGCGTCGTATGTAAATAATCATGCACTGCGTATGTAAGGAGCTCCGGATGGTCCGTCGCACCCGCGCCGAAATGGAAGAAAC (double strand) [mfsBC promoter fragment, 204 bp, Box I]”, the binding result is listed as “binds”.
With “GGGGGCGGCGAACAGGTCGCGGTAGGGGGTGGCCATCGGGATCTCCAGGGCAGCGGCTTGCCTGGCGCTCCCGGCGCCACGACAATACATACAGAGCGTATGAATAAGAGCCTACATTCATACGCGTCGTATGTAAATAATCATGCACTGCGTATGTAAGGAGCTCCGGATGGTCCGTCGCACCCGCGCCGAAATGGAAGAAAC (double strand) [mfsBC promoter fragment, 204 bp, Box II]” the entry was “binds”.
